Data on 2 substances can be found in paper PMC4980113.

For assay [1], the target named is Dip (gp37, degradosome interacting protein) of giant phage φKZ, His-tagged (Pseudomonas phage φKZ). Nature of the assay: AUC; analytical ultracentrifugation of Dip in solution; data not shown.
Assay [2] has the same target. Nature of the assay: ELISA; 350 nM Dip (C-terminal his-tag) held on Ni-NTA HisSorb strips, increasing amounts of RNA degradosome, detected by anti-Strep-tag II-HRP. On the technique in general: ELISA stands for enzyme-linked immunosorbent assay.

In general, stoichiometry N refers to the number of molecules, sites or subunits per partner or assembly. Consider “Dip (gp37, degradosome interacting protein) of giant phage φKZ, His-tagged (natural protein)”, for which the stoichiometry N in assay [1] worked out at 2.

“RNA degradosome of P. aeruginosa, purified (C-terminal Strep-tag II on RNase E) (from UniProt Q9HZM8 1-1057) (complex)”: the Dip protomers per degradosome protomer at saturation of the signal (Dip protomers per degradosome protomer) in assay [2] came out at 10.
